As usually defined, the IC50 is the concentration that gives 50% inhibition. What is called EC50 is the midpoint of the concentration-response curve.

The record followed here is patent US20200369772A1 (ABBA THERAPEUTICS, published 2020).

In test [1] the target is T1, human PD-L2 (full-length, on cells) (human, UniProt Q9BQ51 20-273).
T1 chain: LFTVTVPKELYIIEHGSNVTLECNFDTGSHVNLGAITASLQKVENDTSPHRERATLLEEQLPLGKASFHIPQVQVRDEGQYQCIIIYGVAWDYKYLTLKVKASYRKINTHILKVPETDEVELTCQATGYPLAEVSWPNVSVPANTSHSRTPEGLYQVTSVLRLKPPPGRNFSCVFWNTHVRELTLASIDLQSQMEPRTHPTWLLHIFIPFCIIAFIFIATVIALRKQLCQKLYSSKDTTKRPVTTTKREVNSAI
Nature of the test: FACS blocking of PD-1 binding to CHO-K1/hPD-L2; high antigen concentration. The method in brief:
(§1)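 Serially diluted antibody (0.25 ng/ml-4 μg/ml) was applied for 30 min at 4° C to 1.5×10⁵ CHO-K1 cells stably expressing human PD-L2, after which 0.5 μg/ml recombinant human PD-1-mouse Fc was added for 30 min at 4° C and detected with fluorochrome-conjugated anti-mouse IgG2a (1:200, 20 min, 4° C). Bound PD-1 was read by flow cytometry against reference wells setting 0% and 100% binding. The IC50 was calculated through non-linear curve fitting in GraphPad Prism.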

Test [2] deals with T1, human PD-L2 (full-length, on cells). Nature of the test: FACS binding to CHO-K1 cells expressing human PD-L2. Put shortly:
(§2)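 Flow cytometry on a BD FACSCalibur was used to measure binding to CHO-K1 cells stably expressing full-length human PD-L2. Staining took 20 min at 4° C with APC-labelled anti-rat IgG or anti-human IgG Fc, chosen to match the antibody format. GraphPad Prism was used for non-linear curve fitting of percentage of maximal binding against concentration to obtain the binding EC50.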
For orientation: In flow cytometry, cells or beads pass a laser one at a time.

For test [3], the target named is T2, recombinant human PD-L2-Fc-biotin (human, UniProt Q9BQ51 20-220, biotin).
T2 chain: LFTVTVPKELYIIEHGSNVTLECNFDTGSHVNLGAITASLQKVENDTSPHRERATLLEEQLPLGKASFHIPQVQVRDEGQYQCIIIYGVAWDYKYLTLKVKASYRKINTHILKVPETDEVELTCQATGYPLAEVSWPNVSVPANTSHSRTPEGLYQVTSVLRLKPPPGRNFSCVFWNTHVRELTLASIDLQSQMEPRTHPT
In words: blocking of hPD-L2 binding to HEK293-hPD-1 cells. The method in brief: (§3)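 The IC50 was calculated by non-linear curve fitting in GraphPad Prism from a flow cytometry assay of ligand binding to HEK293 cells stably expressing human PD-1. For this, antibody in serial dilution (0.03 ng/ml-0.5 μg/ml) was first held with recombinant human PD-L2-Fc-biotin (5 ng/ml, 100 pM) in 100 μl for 60 min at 4° C, then added to 1.5×10⁵ cells for 30 min at 4° C. Binding was read with fluorochrome-conjugated streptavidin (20 min, 4° C), with control wells defining 0% and 100% binding.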

For test [4], the target named is T1, human PD-L2 (full-length, on cells). Nature of the test: blocking of hPD-1 binding to CHO-K1/hPD-L2 cells. The method in brief:
as §1

For test [5] the target is unchanged. Nature of the test: FACS, CHO-K1 expressing human PD-L2. Put shortly:
as §2

For test [6], the target named is T3, human PD-L1 (full-length, on cells) (human, UniProt Q9NZQ7 19-290).
T3 construct: whole, on cells; HEK293 cells stably expressing full-length human PD-L1
T3 sequence (Q9NZQ7 19-290): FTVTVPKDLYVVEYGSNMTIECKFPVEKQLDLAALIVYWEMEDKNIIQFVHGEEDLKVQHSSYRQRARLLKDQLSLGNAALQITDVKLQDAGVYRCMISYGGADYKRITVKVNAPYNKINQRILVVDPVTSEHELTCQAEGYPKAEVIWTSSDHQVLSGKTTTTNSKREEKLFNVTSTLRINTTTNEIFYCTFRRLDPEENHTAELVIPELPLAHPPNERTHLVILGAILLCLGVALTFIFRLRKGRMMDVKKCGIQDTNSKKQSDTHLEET
In words: FACS on HEK293 cells stably expressing full-length human PD-L1. The protocol:
(§4) The ability of anti-PD-L2 antibodies binding to mouse PD-L2, human PD-L1 or cyno PD-L2 was determined by FACS. HEK293 cells stably expressing full-length monkey PD-L2, mouse PD-L2 or human PD-L1 were established, subcloned and verified. For binding assay, 1.5×10⁵ cells in 100 μl of FACSwash buffer were incubated with individual anti-PD-L2 antibodies (0.5 μg/ml) for 30 min. After three times of washing, the cells were re-suspended in FACSwash buffer containing FITC-labelled goat-anti-rat IgG (Thermo Fisher, 1:1000) or APC-labelled goat-anti-ratIgG (Biolegend, Clone Poly4054) at a 1:2000 dilution for 20 min at 4° C., washed three times and subsequently subjected to FACS analysis. FACS data was analysed using FlowJo Software and depicted as histograms including secondary antibody only controls.

For test [7], the target named is T4, human PD-L2 (full-length, on cells) (human, UniProt Q9BQ51 20-273).
T4 construct: whole, on cells; CHO-K1 cells stably expressing full-length human PD-L2; also endogenous on NCI-H226 and transfected in Jurkat cells; also called hPD-L2; CHO-K1/hPD-L2
T4 sequence (looked up): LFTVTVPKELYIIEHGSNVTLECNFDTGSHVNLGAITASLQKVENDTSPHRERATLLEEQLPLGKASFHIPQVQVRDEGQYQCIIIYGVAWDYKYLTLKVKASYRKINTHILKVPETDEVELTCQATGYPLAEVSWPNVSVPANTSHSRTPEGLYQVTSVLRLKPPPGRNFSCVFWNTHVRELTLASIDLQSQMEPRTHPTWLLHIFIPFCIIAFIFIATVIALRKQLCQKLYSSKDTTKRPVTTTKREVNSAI
In words: FACS binding on cells expressing human PD-L2 (per the examples).

The target in test [8] is T1, human PD-L2 (full-length, on cells). Nature of the test: FACS, NCI-H226 cells. The method in brief: (§5)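 NCI-H226 human lung squamous carcinoma cells (1.5×10⁵) were stained with APC-labelled goat anti-rat IgG (1:2000) for 20 min at 4° C. Binding to endogenous PD-L2 on these cells was then read by flow cytometry on a BD FACSCalibur. GraphPad Prism non-linear fitting of percentage of maximal binding versus concentration gave the binding EC50.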

For test [9], the target named is T5, mouse PD-L2 (full-length, on cells) (mouse, UniProt Q9WUL5 20-247).
T5 construct: whole, on cells; HEK293 cells stably expressing full-length mouse PD-L2
T5 sequence (looked up): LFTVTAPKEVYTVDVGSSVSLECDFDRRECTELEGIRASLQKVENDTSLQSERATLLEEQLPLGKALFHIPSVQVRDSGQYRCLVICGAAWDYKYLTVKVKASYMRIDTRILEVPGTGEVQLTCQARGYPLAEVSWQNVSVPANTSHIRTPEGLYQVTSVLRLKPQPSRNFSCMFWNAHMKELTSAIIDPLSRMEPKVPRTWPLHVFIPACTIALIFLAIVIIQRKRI
In words: FACS on HEK293 cells stably expressing full-length mouse PD-L2. The protocol: as §4

Test [10] deals with T1, human PD-L2 (full-length, on cells). Nature of the test: FACS binding to CHO-K1 cells expressing human PD-L2. The method in brief: as §2
The target in test [11] is T2, recombinant human PD-L2-Fc-biotin. Nature of the test: blocking of PD-L2 - PD-1 interaction (cell binding); low antigen concentration. Put shortly: as §3
Test [12] deals with T1, human PD-L2 (full-length, on cells). In words: FACS, NCI-H226 cells. The method in brief: as §5
For test [13] the target is unchanged. In words: FACS blocking of PD-1 binding to CHO-K1/hPD-L2; high antigen concentration. The method in brief: as §1
The target in test [14] is T4, human PD-L2 (full-length, on cells). Nature of the test: hybridoma supernatant screen on cells expressing human PD-L2.
Test [15] addresses T2, recombinant human PD-L2-Fc-biotin. Nature of the test: FACS blocking of hPD-L2 binding to HEK293T-hPD-1; low antigen concentration. Put shortly: as §3
For test [16], the target named is T1, human PD-L2 (full-length, on cells). Nature of the test: FACS, CHO-K1 expressing human PD-L2. Put shortly:
as §2

B1: 10D1-G1 (antibody, V domains shown)
VH: QVQLQESGPGLVKPSGTLSLTCAVSGGSISSSYWWSWVRQPPGKGLEWIGEIFHIGSTNYNPSLRSRVTISVVKSKNQFSLNLNSVTAADTAVYFCARVSGGYGYFSGMDVWGQGTTVTVSS
VL: DIQMTQSPSSLSASVGDRVTITCRASQGIRNDLGWYQQKPGKAPKRLIYGASSLQSGVPSRFSGSGSGTEFTLTISSLQPEDFATYYCLQHNSYPRTFGQGTKVEIK
notes: Both formats under this entry
Take B1: the IC50 came to 0.343 nM in [1], 0.014 nM in test [3], 0.4 nM in [4] and 0.0252 nM in test [11]. The EC50 in test [2] came to 0.38 nM; in test [5], 0.408 nM; in test [8] it was 0.146 nM; in [10] it was 0.37 nM. The binding result in [6] is given as “no binding (tested: 0.5 µg/ml)”; in test [7] it was “binds”; in [9], “no binding (tested: 0.5 µg/ml)”.

B2: 11C11-H5 (antibody, V domains shown)
VH: QVQLVESGGGVVQPGRSLRLSCAASGFAFSAYGMHWVRQAPGKGLEWVAISWYDGSNNYHADSVKGRFTISRDSSKNTLYLQMNSLRAEDTAVYYCAKSIGVARHYYYGMDVWGQGTTVTVSS
VL: SYELTQPPSVSVSPGQTASITCSGEELGDKYACWYQQKPGQSPVLVIYQDSKRPSGIPERFSGSNSGNAATLTISGTQAMDEADYYCQAWDSITVVFGGGTKLTVLG
notes: Both formats under this entry
In the case of B2, the EC50 came to 0.131 nM in [12], 0.81 nM in test [2] and 0.346 nM in test [16]. Also, the half-maximal inhibitory concentration (IC50) in test [13] was 0.527 nM; in test [3] it was 0.012 nM; in test [4] it was 0.41 nM; in test [15] it was 0.0149 nM. For the same molecule, the figures for the binding result in test [14], in test [6] and in test [9] were “binds”, “no binding (tested: 0.5 µg/ml)” and “no binding (tested: 0.5 µg/ml)”, respectively.

B3: 1A1-C2 (antibody, V domains shown)
VH: QVQLQESGPGLVKPSGTLSLTCAVSGGSIGSSYWWTWIRQSPGKGLEWIGEIFHSGPTNYTPSLKSRVTISVDKSKNQFSLQLRSVTAADTAVYYCARTTGTTGFYYGMDVWGQGTTVTVSS
VL: EVVLTQSPATLYVTPGERVTLSCRASQSVSSNLAWYQQKPGQAPRLLIYGASTRATGIPARFSGSGSGTEFTLTISSLQSEDFAVYYCQQFNNWPRTFGLGTKVEIT
For B3, the concentration for a half-maximal effect (EC50) in test [12] stood at 0.254 nM; in test [2], 0.62 nM; in [16] it was 0.6 nM. For the same molecule, the half-maximal inhibitory concentration (IC50) in [13] is 0.706 nM; in test [3] it was 0.03 nM; in test [4], 0.49 nM; in test [15] it was 0.0408 nM. Also, the binding result was “binds” in [14], “no binding (tested: 0.5 µg/ml)” in test [6] and “no binding (tested: 0.5 µg/ml)” in test [9].

B4: 8B5-B1 (antibody, V domains shown)
VH: EVQLLESGGGLVQPGGSLKLSCAASGFTFSSYAMFWVRQAPGEGLAWVSAITGSGDHTYYADSVKDHFTISRDNSKNTLYLQMNSLKAEDTAVYYCAKDASGNSYGFPYWYFDLWGRGTLVTVSS
VL: QSALTQPASVSGSPGQSITISCTGTSSDVAGYNFVSWYQHHPGKTPKLMIYDVTNRPSGVSTRFSGSKSGNTASLTISGLQAEDEADYYCSSFTSATTLVFGGGTKLTVLG
notes: Both formats under this entry
Regarding B4, the concentration for a half-maximal effect (EC50) in [12] came out at 1.52 nM; in [2], 1.09 nM; in test [16], 2.18 nM. Further, the IC50 in test [13] stood at 2.02 nM; in [3], 0.017 nM; in test [4] it was 0.94 nM; in test [15], 0.0563 nM. Further, the binding result in test [14] was “binds”; in test [6] it was “no binding (tested: 0.5 µg/ml)”; in test [9] it was “no binding (tested: 0.5 µg/ml)”.
